Numbered stars: 1 amine (or outer) side, 2 acyl side, 3 side chain; on linkers, the order of the positions; unused ones are H or OH. Bridge positions count the residues as written; N and C are the ends. Side chains are listed from the residue outwards. Ends that are not written are not given here. * marks the point of attachment. C20 diacid = O=C(O)CCCCCCCCCCCCCCCCCCC(=O)*; C18 diacid = O=C(O)CCCCCCCCCCCCCCCCC(=O)*; C16 diacid = O=C(O)CCCCCCCCCCCCCCC(=O)*; γGlu = O=C(O)[C@H](CCC(=O)[*:2])N[*:1]; C14 diacid = O=C(O)CCCCCCCCCCCCC(=O)*
T1: human amylin receptor (Amylin 3(a) receptor: human calcitonin receptor co-expressed with RAMP-3) (human, UniProt P30988 25-474; O60896 24-148, limits assumed)
T1 construct: whole, on cells; Used as cell membranes prepared from the Amylin 3(a)/CRE-luc BHK cells (Assay V); the complex is called the human amylin receptor; also called hAmylin-R; hAmylinR
T1 sequence (looked up) 1: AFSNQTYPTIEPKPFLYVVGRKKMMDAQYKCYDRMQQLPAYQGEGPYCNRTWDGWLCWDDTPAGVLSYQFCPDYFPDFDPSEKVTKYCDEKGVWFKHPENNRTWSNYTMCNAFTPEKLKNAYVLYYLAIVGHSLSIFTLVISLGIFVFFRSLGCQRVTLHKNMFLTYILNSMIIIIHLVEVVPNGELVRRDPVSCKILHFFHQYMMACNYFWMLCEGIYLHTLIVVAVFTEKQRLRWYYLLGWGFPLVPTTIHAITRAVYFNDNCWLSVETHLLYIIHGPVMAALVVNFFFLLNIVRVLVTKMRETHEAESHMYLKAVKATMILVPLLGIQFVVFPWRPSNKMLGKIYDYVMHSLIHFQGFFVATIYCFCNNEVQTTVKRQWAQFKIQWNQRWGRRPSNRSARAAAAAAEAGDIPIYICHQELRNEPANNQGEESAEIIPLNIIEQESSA
T1 sequence (looked up) 2: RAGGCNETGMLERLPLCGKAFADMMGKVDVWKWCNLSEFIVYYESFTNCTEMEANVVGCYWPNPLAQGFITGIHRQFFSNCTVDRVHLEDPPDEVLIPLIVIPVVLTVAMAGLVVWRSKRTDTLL

B1: N^ε1-[(4S)-4-carboxy-4-(13-carboxytridecanoylamino)butanoyl]-[Arg17,Pro21,Pro27,His34]-h-amylin (peptide)
peptide: K([γGlu-C14 diacid])CNTATCATQRLANFLRHSSPNFGAIPSSTNVGHNTY-NH2
modifications: disulfide 2-7; N-terminus assumed
SMILES: CC[C@H](C)[C@H](NC(=O)[C@H](C)NC(=O)CNC(=O)[C@H](Cc1ccccc1)NC(=O)[C@H](CC(N)=O)NC(=O)[C@@H]1CCCN1C(=O)[C@H](CO)NC(=O)[C@H](CO)NC(=O)[C@H](Cc1c[nH]cn1)NC(=O)[C@H](CCCNC(=N)N)NC(=O)[C@H](CC(C)C)NC(=O)[C@H](Cc1ccccc1)NC(=O)[C@H](CC(N)=O)NC(=O)[C@H](C)NC(=O)[C@H](CC(C)C)NC(=O)[C@H](CCCNC(=N)N)NC(=O)[C@H](CCC(N)=O)NC(=O)[C@@H](NC(=O)[C@H](C)NC(=O)[C@@H]1CSSC[C@H](NC(=O)[C@@H](N)CCCCNC(=O)CC[C@H](NC(=O)CCCCCCCCCCCCC(=O)O)C(=O)O)C(=O)N[C@@H](CC(N)=O)C(=O)N[C@@H]([C@@H](C)O)C(=O)N[C@@H](C)C(=O)N[C@@H]([C@@H](C)O)C(=O)N1)[C@@H](C)O)C(=O)N1CCC[C@H]1C(=O)N[C@@H](CO)C(=O)N[C@@H](CO)C(=O)N[C@H](C(=O)N[C@@H](CC(N)=O)C(=O)N[C@H](C(=O)NCC(=O)N[C@@H](Cc1c[nH]cn1)C(=O)N[C@@H](CC(N)=O)C(=O)N[C@H](C(=O)N[C@@H](Cc1ccc(O)cc1)C(N)=O)[C@@H](C)O)C(C)C)[C@@H](C)O
notes: modifications are with respect to human amylin
B2: N^ε1-[(4S)-4-carboxy-4-(19-carboxynonadecanoylamino)butanoyl]-[Asp14,Arg17,Pro21,Pro27,Pro34,Arg35]-h-amylin (peptide)
peptide: K([γGlu-C20 diacid])CNTATCATQRLADFLRHSSPNFGAIPSSTNVGPRTY-NH2
modifications: disulfide 2-7; N-terminus assumed
SMILES: CC[C@H](C)[C@H](NC(=O)[C@H](C)NC(=O)CNC(=O)[C@H](Cc1ccccc1)NC(=O)[C@H](CC(N)=O)NC(=O)[C@@H]1CCCN1C(=O)[C@H](CO)NC(=O)[C@H](CO)NC(=O)[C@H](Cc1c[nH]cn1)NC(=O)[C@H](CCCNC(=N)N)NC(=O)[C@H](CC(C)C)NC(=O)[C@H](Cc1ccccc1)NC(=O)[C@H](CC(=O)O)NC(=O)[C@H](C)NC(=O)[C@H](CC(C)C)NC(=O)[C@H](CCCNC(=N)N)NC(=O)[C@H](CCC(N)=O)NC(=O)[C@@H](NC(=O)[C@H](C)NC(=O)[C@@H]1CSSC[C@H](NC(=O)[C@@H](N)CCCCNC(=O)CC[C@H](NC(=O)CCCCCCCCCCCCCCCCCCC(=O)O)C(=O)O)C(=O)N[C@@H](CC(N)=O)C(=O)N[C@@H]([C@@H](C)O)C(=O)N[C@@H](C)C(=O)N[C@@H]([C@@H](C)O)C(=O)N1)[C@@H](C)O)C(=O)N1CCC[C@H]1C(=O)N[C@@H](CO)C(=O)N[C@@H](CO)C(=O)N[C@H](C(=O)N[C@@H](CC(N)=O)C(=O)N[C@H](C(=O)NCC(=O)N1CCC[C@H]1C(=O)N[C@@H](CCCNC(=N)N)C(=O)N[C@H](C(=O)N[C@@H](Cc1ccc(O)cc1)C(N)=O)[C@@H](C)O)C(C)C)[C@@H](C)O
notes: as for B1
B3: N^ε1-[(4S)-4-carboxy-4-(17-carboxyheptadecanoylamino)butanoyl]-[Arg17,Pro21,Pro27,His34]-h-amylin (peptide)
peptide: K([γGlu-C18 diacid])CNTATCATQRLANFLRHSSPNFGAIPSSTNVGHNTY-NH2
modifications: disulfide 2-7; N-terminus assumed
SMILES: CC[C@H](C)[C@H](NC(=O)[C@H](C)NC(=O)CNC(=O)[C@H](Cc1ccccc1)NC(=O)[C@H](CC(N)=O)NC(=O)[C@@H]1CCCN1C(=O)[C@H](CO)NC(=O)[C@H](CO)NC(=O)[C@H](Cc1c[nH]cn1)NC(=O)[C@H](CCCNC(=N)N)NC(=O)[C@H](CC(C)C)NC(=O)[C@H](Cc1ccccc1)NC(=O)[C@H](CC(N)=O)NC(=O)[C@H](C)NC(=O)[C@H](CC(C)C)NC(=O)[C@H](CCCNC(=N)N)NC(=O)[C@H](CCC(N)=O)NC(=O)[C@@H](NC(=O)[C@H](C)NC(=O)[C@@H]1CSSC[C@H](NC(=O)[C@@H](N)CCCCNC(=O)CC[C@H](NC(=O)CCCCCCCCCCCCCCCCC(=O)O)C(=O)O)C(=O)N[C@@H](CC(N)=O)C(=O)N[C@@H]([C@@H](C)O)C(=O)N[C@@H](C)C(=O)N[C@@H]([C@@H](C)O)C(=O)N1)[C@@H](C)O)C(=O)N1CCC[C@H]1C(=O)N[C@@H](CO)C(=O)N[C@@H](CO)C(=O)N[C@H](C(=O)N[C@@H](CC(N)=O)C(=O)N[C@H](C(=O)NCC(=O)N[C@@H](Cc1c[nH]cn1)C(=O)N[C@@H](CC(N)=O)C(=O)N[C@H](C(=O)N[C@@H](Cc1ccc(O)cc1)C(N)=O)[C@@H](C)O)C(C)C)[C@@H](C)O
notes: as for B1
B4: N^ε1-[(4S)-4-carboxy-4-(15-carboxypentadecanoylamino)butanoyl]-[Arg17,Pro21,Pro27,His34]-h-amylin (peptide)
peptide: K([γGlu-C16 diacid])CNTATCATQRLANFLRHSSPNFGAIPSSTNVGHNTY-NH2
modifications: disulfide 2-7; N-terminus assumed
SMILES: CC[C@H](C)[C@H](NC(=O)[C@H](C)NC(=O)CNC(=O)[C@H](Cc1ccccc1)NC(=O)[C@H](CC(N)=O)NC(=O)[C@@H]1CCCN1C(=O)[C@H](CO)NC(=O)[C@H](CO)NC(=O)[C@H](Cc1c[nH]cn1)NC(=O)[C@H](CCCNC(=N)N)NC(=O)[C@H](CC(C)C)NC(=O)[C@H](Cc1ccccc1)NC(=O)[C@H](CC(N)=O)NC(=O)[C@H](C)NC(=O)[C@H](CC(C)C)NC(=O)[C@H](CCCNC(=N)N)NC(=O)[C@H](CCC(N)=O)NC(=O)[C@@H](NC(=O)[C@H](C)NC(=O)[C@@H]1CSSC[C@H](NC(=O)[C@@H](N)CCCCNC(=O)CC[C@H](NC(=O)CCCCCCCCCCCCCCC(=O)O)C(=O)O)C(=O)N[C@@H](CC(N)=O)C(=O)N[C@@H]([C@@H](C)O)C(=O)N[C@@H](C)C(=O)N[C@@H]([C@@H](C)O)C(=O)N1)[C@@H](C)O)C(=O)N1CCC[C@H]1C(=O)N[C@@H](CO)C(=O)N[C@@H](CO)C(=O)N[C@H](C(=O)N[C@@H](CC(N)=O)C(=O)N[C@H](C(=O)NCC(=O)N[C@@H](Cc1c[nH]cn1)C(=O)N[C@@H](CC(N)=O)C(=O)N[C@H](C(=O)N[C@@H](Cc1ccc(O)cc1)C(N)=O)[C@@H](C)O)C(C)C)[C@@H](C)O
notes: as for B1
B5: N^ε1-[(4S)-4-carboxy-4-(19-carboxynonadecanoylamino)butanoyl]-[Asp14,Arg17,Pro21,Pro27,Pro34,Glu35]-h-amylin (peptide)
peptide: K([γGlu-C20 diacid])CNTATCATQRLADFLRHSSPNFGAIPSSTNVGPETY-NH2
modifications: disulfide 2-7; N-terminus assumed
SMILES: CC[C@H](C)[C@H](NC(=O)[C@H](C)NC(=O)CNC(=O)[C@H](Cc1ccccc1)NC(=O)[C@H](CC(N)=O)NC(=O)[C@@H]1CCCN1C(=O)[C@H](CO)NC(=O)[C@H](CO)NC(=O)[C@H](Cc1c[nH]cn1)NC(=O)[C@H](CCCNC(=N)N)NC(=O)[C@H](CC(C)C)NC(=O)[C@H](Cc1ccccc1)NC(=O)[C@H](CC(=O)O)NC(=O)[C@H](C)NC(=O)[C@H](CC(C)C)NC(=O)[C@H](CCCNC(=N)N)NC(=O)[C@H](CCC(N)=O)NC(=O)[C@@H](NC(=O)[C@H](C)NC(=O)[C@@H]1CSSC[C@H](NC(=O)[C@@H](N)CCCCNC(=O)CC[C@H](NC(=O)CCCCCCCCCCCCCCCCCCC(=O)O)C(=O)O)C(=O)N[C@@H](CC(N)=O)C(=O)N[C@@H]([C@@H](C)O)C(=O)N[C@@H](C)C(=O)N[C@@H]([C@@H](C)O)C(=O)N1)[C@@H](C)O)C(=O)N1CCC[C@H]1C(=O)N[C@@H](CO)C(=O)N[C@@H](CO)C(=O)N[C@H](C(=O)N[C@@H](CC(N)=O)C(=O)N[C@H](C(=O)NCC(=O)N1CCC[C@H]1C(=O)N[C@@H](CCC(=O)O)C(=O)N[C@H](C(=O)N[C@@H](Cc1ccc(O)cc1)C(N)=O)[C@@H](C)O)C(C)C)[C@@H](C)O
notes: as for B1

These binders were tested against T1, human amylin receptor (Amylin 3(a) …) (assay: SPA competition binding, displacement of 125I-rat amylin from membranes of BHK cells with human calcitonin receptor + RAMP-3 (Assay V)).
Experimental: The binding assay was performed using scintillation proximity assay (SPA) beads (RPNQ0001) from PerkinElmer and cell membranes from the Amylin 3(a)/CRE-luc cells (as described in Assay (II)) were used. Membranes were prepared in the following way; the cells were rinsed with PBS and incubated with Versene for approximately 5 min before harvesting. The cells were flushed with PBS and the cell-suspension was centrifuged for 5 min at 1000 rpm. Cells were homogenized (ultrathurrax) in a buffer containing 20 mM Na-HEPES and 10 mM EDTA (pH 7.4) and centrifuged at 20.000 rpm for 15 min. The resulting pellet was resuspended, homogenized and centrifuged (20.000 rpm, 15 min) in a buffer containing 20 mM Na-HEPES and 0.1 mM EDTA (pH 7.4, buffer 2). The resulting pellet was resuspended in buffer 2 and protein concentration was measured (BCA protein Assay, Pierce). The homogenate was kept cold during the whole procedure. The membranes were kept at −80° C. until use. The assay was performed in a 384 well Optiplate (PerkinElmer) in a total volume of 40 ul. Membranes were mixed with SPA beads. Final concentration of membranes 35 ng/μL final and SPA beads was 0.05 mg/well. Test-compounds were dissolved in DMSO and further diluted in assay buffer (50 mM Hepes, pH 7.4, 1 mM CaCl2, 5 mM MgCl₂, 0.1% OA and 0.02% Tween20). […] The final mixture was incubated with shaking at 400 rpm for 120 min at 25° C. prior to centrifugation (1500 rpm, 10 min). Samples were analyzed on TopCounter™ (Packard). The IC₅₀ was calculated using (one site binding competition analysis) GraphPad Prism5 as a measure of receptor affinity.
B1 was tested, and the IC50 was 1.04 nM. In the case of B2, the IC50 is reported as 0.281 nM. B3 showed an IC50 of 0.382 nM. B4 was tested, and the IC50 was 0.58 nM. With B5 the IC50 was 0.196 nM.

Source: patent publication US20140087995A1 (published 2014)
